Source: the supplement of paper PMC5998384

Key:
HeLa Kyoto [1] = assay: thermal stability score vs G1/S (z-score of summed log2 fold changes over temperatures); higher = more thermally stable than in G1/S
HeLa Kyoto [2] = assay: melting temperature (median over replicates), in situ; higher = more thermally stable
[3] = cell cycle stage: early G1 (4.5 h after nocodazole release)
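Wherever melting temperature (median over replicates), in situ is given: HeLa Kyoto cells synchronized by double thymidine or nocodazole block, proteins quantified by TMT10plex mass spectrometry, three independent biological replicates.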
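Wherever thermal stability score vs G1/S (z-score of summed log2 fold changes over temperatures) is given: synchronized HeLa Kyoto cells, proteins quantified by TMT10plex mass spectrometry, three biological replicates, mitosis taken 0.5 h after nocodazole release, G1/S directly after double thymidine block.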

GORASP1, sequence (chain, as listed by the source): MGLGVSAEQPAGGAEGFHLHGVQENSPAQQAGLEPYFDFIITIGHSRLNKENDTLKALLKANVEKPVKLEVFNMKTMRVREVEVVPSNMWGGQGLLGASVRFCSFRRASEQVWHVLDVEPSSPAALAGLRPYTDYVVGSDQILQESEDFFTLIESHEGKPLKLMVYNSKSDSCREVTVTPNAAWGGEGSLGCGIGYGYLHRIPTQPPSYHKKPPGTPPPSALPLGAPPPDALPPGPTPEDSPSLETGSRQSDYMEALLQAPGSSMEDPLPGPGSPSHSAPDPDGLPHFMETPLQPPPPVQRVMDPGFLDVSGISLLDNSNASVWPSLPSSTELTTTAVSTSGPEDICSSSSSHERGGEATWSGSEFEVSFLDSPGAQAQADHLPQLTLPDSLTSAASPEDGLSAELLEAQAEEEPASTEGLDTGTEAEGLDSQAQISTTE
MSRB2, sequence (chain, as listed by the source): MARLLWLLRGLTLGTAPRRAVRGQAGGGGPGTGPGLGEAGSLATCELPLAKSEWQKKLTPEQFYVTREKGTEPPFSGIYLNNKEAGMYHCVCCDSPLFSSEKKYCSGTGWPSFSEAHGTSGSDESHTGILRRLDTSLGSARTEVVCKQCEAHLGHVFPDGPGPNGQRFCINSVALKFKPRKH

DENND4B
thermal stability score (HeLa Kyoto [1]; [3]): -0.499 | thermal stability score (HeLa Kyoto [1]; cell cycle stage: mitosis): -0.617

GORASP1
thermal stability score (HeLa Kyoto [1]; [3]): 0.552 | thermal stability score (HeLa Kyoto [1]; cell cycle stage: mitosis): 0.301

MAAAEEGCSVGAEADRELEELLESALDDFDKAKPSPAPPSTTTAPDASGPQKRSPGDTAKDALFASQEKFFQELFDSELASQATAEFEKAMKELAEEEPHLVEQFQKLSEAAGRVGSDMTSQQEFTSCLKETLSGLAKNATDLQNSSMSEEELTKAMEGLGMDEGDGEGNILPIMQSIMQNLLSKDVLYPSLKEITEKYPEWLQSHRESLPPEQFEKYQEQHSVMCKICEQFEAETPTDSETTQKARFEMVLDLMQQLQDLGHPPKELAGEMPPGLNFDLDALNLSGPPGASGEQCLIM [G3V3G9|DCAF8]
thermal stability score (HeLa Kyoto [1]; [3]): 0.212 | thermal stability score (HeLa Kyoto [1]; cell cycle stage: mitosis): -1

MAGVSACIKYSMFTFNFLFWLCGILILALAIWVRVSNDSQAIFGSEDVGSSSYVAVDILIAVGAIIMILGFLGCCGAIKESRCMLLLFFIGLLLILLLQVATGILGAVFKSKSDRIVNETLYENTKLLSATGESEKQFQEAIIVFQEEFKCCGLVNGAADWGNNFQHYPELCACLDKQRPCQSYNGKQVYKETCISFIKDFLAKNLIIVIGISFGLAVIEILGLVFSMVLYCQIGNK [TSPAN8]
thermal stability score (HeLa Kyoto [1]; [3]): 1.86 | thermal stability score (HeLa Kyoto [1]; cell cycle stage: mitosis): -1.57

MALSRVCWARSAVWGSAVTPGHFVTRRLQLGRSGLAWGAPRSSKLHLSPKADVKNLMSYVVTKTKAINGKYHRFLGRHFPRFYVLYTIFMKGLQMLWADAKKARRIKTNMWKHNIKFHQLPYREMEHLRQFRQDVTKCLFLGIISIPPFANYLVFLLMYLFPRQLLIRHFWTPKQQTDFLDIYHAFRKQSHPEIISYLEKVIPLISDAGLRWRLTDLCTKIQRGTHPAIHDILALRECFSNHPLGMNQLQALHVKALSRAMLLTSYLPPPLLRHRLKTHTTVIHQLDKALAKLGIGQLTAQEVKSACYLRGLNSTHIGEDRCRTWLGEWLQISCSLKEAELSLLLHNVVLLSTNYLGTRR [LETMD1]
thermal stability score (HeLa Kyoto [1]; [3]): -0.886 | thermal stability score (HeLa Kyoto [1]; cell cycle stage: mitosis): -0.884

MAQRAVWLISHEPGTPLCGTVRFSRRYPTVEKRARVFNGASYVPVPEDGPFLKALLFELRLLDDDKDFVESRDSCSRINKTSIYGLLIGGEELWPVVAFLKNDMIYACVPLVEQTLSPRPPLISVSGVSQGFEFLFGIQDFLYSGQKNDSELNTKLSQLPDLLLQACPFGTLLDANLQNSLDNTNFASVTQPQKQPAWKTGTYKGKPQVSISITEKVKSMQYDKQGIADTWQVVGTVTCKCDLEGIMPNVTISLSLPTNGSPLQDILVHPCVTSLDSAILTSSSIDAMDDSAFSGPYKFPFTPPLESFNLCFYTSQVPVPPILGFYQMKEEEVQLRITINLKLHESVKNNFEFCEAHIPFYNRGPITHLEYKTSFGQLEVFREKSLLIWIIGQKFPKSMEISLSGTVTFGAKSHEKQPFDPICTGETAYLKLHFRILDYTLTGCYADQHSVQVFASGKPKISAHRKLISSDYYIWNSKAPAPVTYGSLLL [AP5M1]
thermal stability score (HeLa Kyoto [1]; [3]): 2.33e-19 | thermal stability score (HeLa Kyoto [1]; cell cycle stage: mitosis): -1.74e-18

MEERERGARSAGAGSPARPPSPRLDVSSDSFDPLLALYAPRLPPIPYPNAPCFNNVAEYESFLRTGVRGGGRGRGRARGAAAGSGVPAAPGPSGRTRRRPDAPAPDPERIQRLRRLMVAKEEGDGAAGAGRRGPGRSRKAPRNVLTRMPLHEGSPLGELHRCIREGVKVNVHIRTFKGLRGVCTGFLVAFDKFWNMALTDVDETYRKPVLGKAYERDSSLTLTRLFDRLKLQDSSKKEADSKSAVEDSTLSRYSQTSTWKLASVWGRADTGRGSHKRSRSVPSSLQASAREESRSELSGRTTRTDGSSVGGTFSRATTLSRGQSRKKKRKPKVDYQQVFTRHINQIFIRGENVLLVHLAQ [LSM11]
thermal stability score (HeLa Kyoto [1]; [3]): 0.976 | thermal stability score (HeLa Kyoto [1]; cell cycle stage: mitosis): 0.837

MGKNKLLHPSLVLLLLVLLPTDASVSGKPQYMVLVPSLLHTETTEKGCVLLSYLNETVTVSASLESVRGNRSLFTDLEAENDVLHCVAFAVPKSSSNEEVMFLTVQVKGPTQEFKKRTTVMVKNEDSLVFVQTDKSIYKPGQTVKFRVVSMDENFHPLNELIPLVYIQDPKGNRIAQWQSFQLEGGLKQFSFPLSSEPFQGSYKVVVQKKSGGRTEHPFTVEEFVLPKFEVQVTVPKIITILEEEMNVSVCGLYTYGKPVPGHVTVSICRKYSDASDCHGEDSQAFCEKFSGQLNSHGCFYQQVKTKVFQLKRKEYEMKLHTEAQIQEEGTVVELTGRQSSEITRTITKLSFVKVDSHFRQGIPFFGQVRLVDGKGVPIPNKVIFIRGNEANYYSNATTDEHGLVQFSINTTNVMGTSLTVRVNYKDRSPCYGYQWVSEEHEEAHHTAYLVFSPSKSFVHLEPMSHELPCGHTQTVQAHYILNGGTLLGLKKLSFYYLIMAKGGIVRTGTHGLLVKQEDMKGHFSISIPVKSDIAPVARLLIYAVLPTGDVIGDSAKYDVENCLANKVDLSFSPSQSLPASHAHLRVTAAPQSVCALRAVDQSVLLMKPDAELSASSVYNLLPEKDLTGFPGPLNDQDNEDCINRHNVYINGITYTPVSSTNEKDMYSFLEDMGLKAFTNSKIRKPKMCPQLQQYEMHGPEGLRVGFYESDVMGRGHARLVHVEEPHTETVRKYFPETWIWDLVVVNSAGVAEVGVTVPDTITEWKAGAFCLSEDAGLGISSTASLRAFQPFFVELTMPYSVIRGEAFTLKATVLNYLPKCIRVSVQLEASPAFLAVPVEKEQAPHCICANGRQTVSWAVTPKSLGNVNFTVSAEALESQELCGTEVPSVPEHGRKDTVIKPLLVEPEGLEKETTFNSLLCPSGGEVSEELSLKLPPNVVEESARASVSVLGDILGSAMQNTQNLLQMPYGCGEQNMVLFAPNIYVLDYLNETQQLTPEIKSKAIGYLNTGYQRQLNYKHYDGSYSTFGERYGRNQGNTWLTAFVLKTFAQARAYIFIDEAHITQALIWLSQRQKDNGCFRSSGSLLNNAIKGGVEDEVTLSAYITIALLEIPLTVTHPVVRNALFCLESAWKTAQEGDHGSHVYTKALLAYAFALAGNQDKRKEVLKSLNEEAVKKDNSVHWERPQKPKAPVGHFYEPQAPSAEVEMTSYVLLAYLTAQPAPTSEDLTSATNIVKWITKQQNAQGGFSSTQDTVVALHALSKYGAATFTRTGKAAQVTIQSSGTFSSKFQVDNNNRLLLQQVSLPELPGEYSMKVTGEGCVYLQTSLKYNILPEKEEFPFALGVQTLPQTCDEPKAHTSFQISLSVSYTGSRSASNMAIVDVKMVSGFIPLKPTVKMLERSNHVSRTEVSSNHVLIYLDKVSNQTLSLFFTVLQDVPVRDLKPAIVKVYDYYETDEFAIAEYNAPCSKDLGNA [A2M]
thermal stability score (HeLa Kyoto [1]; [3]): -2.38 | thermal stability score (HeLa Kyoto [1]; cell cycle stage: mitosis): -0.965

MLQQDSNDDTEDVSLFDAEEETTNRPRKAKIRHPVASFFHLFFRVSAIIVCLLCELLSSSFITCMVTIILLLSCDFWAVKNVTGRLMVGLRWWNHIDEDGKSHWVFESRKESSQENKTVSEAESRIFWLGLIACSVLWVIFAFSALFSFTVKWLRRSRHIAQTGLKVLGSRDPPASAFQSAGITGVSRCPGHPSRKFHQVDINSFTRITDRALYWKPAPRLSSPPLRAAPGNCQQMAPARLFLSLRLWAWRGGGESPNSRGTGEPGPKFHLASGMH [TVP23C]
melting temperature (HeLa Kyoto [2]; cell cycle stage: mitosis): 56 °C

MNILPKKSWHVRNKDNVARVRRDEAQAREEEKERERRVLLAQQEARTEFLRKKARHQNSLPELEAAEAGAPGSGPVDLFRELLEEGKGVIRGNKEYKEEKRQEKERQEKALGILTYLGQSAAEAQTQPPWYQLPPGRGGPPPGPAPDEKIKSRLDPLREMQKHLGKKRQHGGDEGSRSRKEKEGSEKQRPKEPPSLDQLRAERLRREAAERSRAEALLARVQGRALQEGQPEEDETDDRRRRYNSQFNPQLARRPRQQDPHLTH [LENG1]
melting temperature (HeLa Kyoto [2]; cell cycle stage: mitosis): 52.5 °C

MPFRLLIPLGLLCALLPQHHGAPGPDGSAPDPAHYRERVKAMFYHAYDSYLENAFPFDELRPLTCDGHDTWGSFSLTLIDALDTLLILGNVSEFQRVVEVLQDSVDFDIDVNASVFETNIRVVGGLLSAHLLSKKAGVEVEAGWPCSGPLLRMAEEAARKLLPAFQTPTGMPYGTVNLLHGVNPGETPVTCTAGIGTFIVEFATLSSLTGDPVFEDVARVALMRLWESRSDIGLVGNHIDVLTGKWVAQDAGIGAGVDSYFEYLVKGAILLQDKKLMAMFLEYNKAIRNYTRFDDWYLWVQMYKGTVSMPVFQSLEAYWPGLQSLIGDIDNAMRTFLNYYTVWKQFGGLPEFYNIPQGYTVEKREGYPLRPELIESAMYLYRATGDPTLLELGRDAVESIEKISKVECGFATIKDLRDHKLDNRMESFFLAETVKYLYLLFDPTNFIHNNGSTFDAVITPYGECILGAGGYIFNTEAHPIDPAALHCCQRLKEEQWEVEDLMREFYSLKRSRSKFQKNTVSSGPWEPPARPGTLFSPENHDQARERKPAKQKVPLLSCPSQPFTSKLALLGQVFLDSS [EDEM2]
melting temperature (HeLa Kyoto [2]; cell cycle stage: G1/S): 55.3 °C

MPSSLPGSQVPHPTLDAVDLVEKTLRNEGTSSSAPVLEEGDTDPWTLPQLKDTSQPWKELRVAGRLRRVAGSVLKACGLLGSLYFFICSLDVLSSAFQLLGSKVAGDIFKDNVVLSNPVAGLVIGVLVTALVQSSSTSSSIVVSMVAAKLLTVRVSVPIIMGVNVGTSITSTLVSMAQSGDRDEFQRAFSGSAVHGIFNWLTVLVLLPLESATALLERLSELALGAASLTPRAQAPDILKVLTKPLTHLIVQLDSDMIMSSATGNATNSSLIKHWCGTTGQPTQENSSCGAFGPCTEKNSTAPADRLPCRHLFAGTELTDLAVGCILLAGSLLVLCGCLVLIVKLLNSVLRGRVAQVVRTVINADFPFPLGWLGGYLAVLAGAGLTFALQSSSVFTAAVVPLMGVGVISLDRAYPLLLGSNIGTTTTALLAALASPADRMLSALQVALIHFFFNLAGILLWYLVPALRLPIPLARHFGVVTARYRWVAGVYLLLGFLLLPLAAFGLSLAGGMELAAVGGPLVGLVLLVILVTVLQRRRPAWLPVRLRSWAWLPVWLHSLEPWDRLVTRCCPCNVCSPPKATTKEAYCYENPEILASQQL [SLC34A3]
melting temperature (HeLa Kyoto [2]; cell cycle stage: mitosis): 57.5 °C

MQFMLLFSRQGKLRLQKWYVPLSDKEKKKITRELVQTVLARKPKMCSFLEWRDLKIVYKRYASLYFCCAIEDQDNELITLEIIHRYVELLDKYFGSVCELDIIFNFEKAYFILDEFLLGGEVQETSKKNVLKAIEQADLLQEEAETPRSVLEEIGLT [AP1S2]
melting temperature (HeLa Kyoto [2]; cell cycle stage: mitosis): 49.7 °C

MRWRTILLQYCFLLITCLLTALEAVPIDIDKTKVQNIHPVESAKIEPPDTGLYYDEYLKQVIDVLETDKHFREKLQKADIEEIKSGRLSKELDLVSHHVRTKLDELKRQEVGRLRMLIKAKLDSLQDIGMDHQALLKQFDHLNHLNPDKFESTDLDMLIKAATSDLEHYDKTRHEEFKKYEMMKEHERREYLKTLNEEKRKEEESKFEEMKKKHENHPKVNHPGSKDQLKEVWEETDGLDPNDFDPKTFFKLHDVNSDGFLDEQELEALFTKELEKVYDPKNEEDDMVEMEEERLRMREHVMNEVDTNKDRLVTLEEFLKATEKKEFLEPDSWETLDQQQFFTEEELKEYENIIALQENELKKKADELQKQKEELQRQHDQLEAQKLEYHQVIQQMEQKKLQQGIPPSGPAGELKFEPHI [NUCB2]
melting temperature (HeLa Kyoto [2]; cell cycle stage: G1/S): 55.5 °C | melting temperature (HeLa Kyoto [2]; cell cycle stage: mitosis): 56.9 °C

MSKRNQVSYVRPAEPAFLARFKERVGYREGPTVETKRIQPQPPDEDGDHSDKEDEQPQVVVLKKGDLSVEEVMKIKAEIKAAKADEEPTPADGRIIYRKPVKHPSDEKYSGLTASSKKKKPNEDEVNQDSVKKNSQKQIKNSSLLSFDNEDENE [KIAA1143]
melting temperature (HeLa Kyoto [2]; cell cycle stage: mitosis): 52 °C

MSRB2
melting temperature (HeLa Kyoto [2]; cell cycle stage: G1/S): 52.4 °C | melting temperature (HeLa Kyoto [2]; cell cycle stage: mitosis): 52.6 °C

MWSRLVWLGLRAPLGGRQGFTSKADPQGSGRITAAVIEHLERLALVDFGSREAVARLEKAIAFADRLRAVDTDGVEPMESVLEDRCLYLRSDNVVEGNCADELLQNSHRVVEEYFVAPPGNISLPKLDEQEPFPHS [GATC]
melting temperature (HeLa Kyoto [2]; cell cycle stage: G1/S): 51.7 °C
